B1: HDV Ribozyme (parent)
chain: GGCCGGCAUGGUCCCAGCCUCCUCGCUGGCGCCGGCUGGGCAACAUUCCGAGGGGACCGUCCCCUCGGUAAUGGCGAAUGGGACCCA

The variants in the data set derive from B1. In words: self-cleavage, relative activity (ratio to wild type); higher = more cleavage; co-transcriptional.
For the variant C4G U37G, the self-cleavage is 0.0489.
In the case of G76U C84A, the self-cleavage came to 0.906.
On to C18U G39A, for which the self-cleavage was determined as 0.0302.
The result for C18G U23A reads 0; that for U9G G76U, 1.13; that for A45U C62A, 0.791.
The result for G35A C85A reads 0.644; that for U20C A56G, 0.101.
The result for G55U C63U reads 0.997.
Turning to G5C C13U, the self-cleavage was found to be 0.133.
The result for G10A G68A reads 0.604.
G35A: the self-cleavage came to 0.605.
The result for G39C U46G reads 0.262; that for G73U A78C, 0.173.
The same measure for C32A G76C: 0.192; for C26G G76A: 0.914; for G31U G34U: 0.0791.
The result for C3G C63G reads 0.307; that for C44A C64A, 0.665.
Regarding C7A C84A, the self-cleavage amounted to 0.519.
For G38A A87G, the self-cleavage was determined as 0.219.
The result for C62U C66A reads 0.815.
Consider C14U C32G, for which the self-cleavage was found to be 0.0462.
The same measure for C26U C32A: 0.256; for C61G G73C: 0.264; for G40C U79G: 0.138.
The result for C63U C86U reads 1.05.
The result for C15U U37A reads 0.196; that for C44A G82U, 0.0791; that for G40A C44G, 0.302.
Consider U37C G40U, for which the self-cleavage was 0.456.
The result for C3G C4A reads 0.0767; that for G38A C66U, 0.128.
The same measure for C7U G73A: 0.424; for G38C C49U: 0.277; for U12G G39A: 0.403.
For G17U C86A, the self-cleavage is 0.369.
Turning to U69C A77C, the self-cleavage was determined as 0.612.
The same measure for G50U C57U: 1.17; for G5C U20G: 0.
The result for G34A G82C reads 0.261.
The result for C7U A43C reads 0.26; that for G40C G50U, 0.269.
For C66A G73U, the self-cleavage came out at 0.171.
The same measure for U37G C44G: 0.0692; for C57A G82A: 0.554.
The same measure for C15U A87G: 1.05; for U20A G54C: 0.196; for U12C G67U: 0.38.
The same measure for U12A C85U: 0.481; for A42U C66A: 0.511; for U60G C86U: 0.959.
A16C A71C: the self-cleavage came out at 0.492.
The same measure for U9A G81U: 0.332.
The result for G2A G40U reads 0.0799; that for G59C U69A, 1.27; that for G6U C13A, 0.0875.
As to U37A C49G, the self-cleavage worked out at 0.201.
The result for U23G G40C reads 0.135; that for A87U, 1.03.
The result for C36U C86U reads 0.712.
The same measure for G40U G67C: 0.639; for U27C G67U: 0.798; for G25C U69A: 0.166.
For G5U G67U, the self-cleavage came to 0.364.
The same measure for C14G A83G: 0.268; for G38A G53C: 0.0678; for U9G A78C: 0.208.
The same measure for C44A G59U: 0.776; for A16C G34C: 0.104; for C14A C85U: 0.724.
The same measure for C61G G82A: 0.284; for U46C C64U: 0.725.
Regarding G73U G82U, the self-cleavage came to 0.224.
Regarding C14A C61U, the self-cleavage worked out at 0.656.
The result for G81C A87C reads 0.269; that for C62A A77U, 0.45.
The result for G55A C58A reads 0.978; that for G25A, 0.24; that for G52C A77G, 0.643.
The same measure for C22A C66A: 0.258; for G31C U47G: 0.383.
As to C24G C62U, the self-cleavage is 0.142.
The same measure for G31U A51G: 0.369; for U9A C32U: 0.911; for A51G G67A: 0.831.
The result for A42C U60G reads 0.269; that for C13A C64U, 0.242; that for C32G C84G, 0.0594.
The result for C41U U72G reads 0.534; that for G38A A42U, 0; that for G1A C32A, 0.0386.
Consider C3G U46A, for which the self-cleavage stood at 0.253.
The same measure for C33U C75A: 0.0923.
The same measure for A42C G76C: 0.277.
The result for G28C G39C reads 0.
Regarding U12G C19U, the self-cleavage was 0.0378.
The same measure for G38C C48G: 0.133; for C61U G76C: 1.05.
In the case of C26U G54A, the self-cleavage was 0.774.
The result for G31C C62U reads 0.386.
The same measure for C49G C58G: 0.855; for C64G U79C: 0.623.
The same measure for G59U G68C: 0.973.
With A16U C61U, the self-cleavage stood at 1.04.
The same measure for G35A G82C: 0.266.
On to C15A U72C, for which the self-cleavage is 0.208.
The result for C21A G76C reads 0.0997; that for G34C A77C, 0.17; that for C24U C64U, 0.511.
The result for G40A G73A reads 0.669.
The result for C49U U72G reads 0.745; that for G6U G35U, 0.143; that for G5C G68A, 0.208.
In the case of C21A A56G, the self-cleavage was 0.109.
In the case of U37G G55C, the self-cleavage stood at 0.141.
The result for U23G U46C reads 0.462; that for U37G C48A, 0.277; that for A51G C63G, 0.538.
The same measure for U12G C36U: 0.415.
The result for U23C G54U reads 1.01.
In the case of C7G C24A, the self-cleavage amounted to 0.208.
Regarding G31C G59C, the self-cleavage is 0.378.
The result for C36U U69A reads 0.627; that for G53A G59U, 0.862.
The result for G11U G54A reads 0.313; that for C26U A71G, 0.928.
On to C41G C49A, for which the self-cleavage turned out to be 0.489.
The same measure for G6A C49U: 0.58.
The result for G17C C22A reads 0.
The result for G38C G39A reads 0.113; that for G67U U69C, 0.906.
In the case of C24A G76A, the self-cleavage amounted to 0.769.
The result for G5A U12G reads 0.145; that for U9G G80U, 0.289.
The same measure for C57G G82U: 0.317; for G6A G82U: 0.188; for G35U U60A: 0.415.
The result for C64G G67C reads 0.332.
Turning to U9A C19A, the self-cleavage stood at 0.194.
The result for G1A U27C reads 0.119.
The same measure for C26A G29C: 0.104; for C49A A78C: 0.116; for A16G A43U: 0.623.
Take C24U G73A: the self-cleavage was determined as 0.188.
The same measure for G17C A71C: 0.246; for C66G U72C: 0.453.
The same measure for C4G G80C: 0.0906; for C58G C64G: 0.853; for G38U: 0.255.
The same measure for C4G C61U: 0.475; for G50A U65C: 0.769.
U27A A42C: the self-cleavage amounted to 0.0831.
The result for U12C A83U reads 0.128; that for G5A C19U, 0.
The same measure for U37G C58A: 0.145; for G54U C61A: 1.04.
The result for G80C G82A reads 0.0824; that for G11U C22A, 0.0179.
For the variant G28U C48U, the self-cleavage turned out to be 0.0361.
U9C U47C: the self-cleavage stood at 0.969.
The same measure for C44G U60C: 0.569.
The result for G11A C13A reads 0.0791; that for G10C G38A, 0.0692; that for G6U G39C, 0.151.
The same measure for C49G G53C: 0.249; for G25U U47A: 0.161.

(Values after the RNAGym collection of RNA variant scans (doi:10.7554/elife.80360).)
